Experiments:
Assay in all cases: cell-based or functional assay
[1] = target: SARS-CoV-2 spike (S) protein, Omicron variant BA.1 (SARS-CoV-2) (UniProt P0DTC2)
[2] = target: SARS-CoV-2 spike (S) protein, Omicron variant BA.2 (SARS-CoV-2) (UniProt P0DTC2)
[3] = target: SARS-CoV-2 spike (S) protein, Omicron variant BA.2.12.1 (SARS-CoV-2) (UniProt P0DTC2)
[4] = target: SARS-CoV-2 spike protein, Alpha variant (B.1.1.7) (SARS-CoV-2)
[5] = target: SARS-CoV-2 spike protein, Beta variant 1 (B.1.351 v1) (SARS-CoV-2)
[6] = target: SARS-CoV-2 spike protein, C.1.2 variant (SARS-CoV-2)
[7] = target: SARS-CoV-2 spike protein, Delta variant (AY.1) (SARS-CoV-2)
[8] = target: SARS-CoV-2 spike protein, Delta variant (B.1.617.2) (SARS-CoV-2)
[9] = target: SARS-CoV-2 spike protein, Gamma variant (P.1) (SARS-CoV-2)
[10] = target: SARS-CoV-2 spike protein, Iota variant (B.1.526) (SARS-CoV-2)
[11] = target: SARS-CoV-2 spike protein, Kappa variant (B.1.617.1) (SARS-CoV-2)
[12] = target: SARS-CoV-2 spike protein, Lambda variant (C.37) (SARS-CoV-2)
[13] = target: SARS-CoV-2 spike protein, Mu variant (B.1.621) (SARS-CoV-2)
[14] = target: SARS-CoV-2 spike (S) protein of Omicron sublineage BA.2.75 (G446S) (SARS-CoV-2) (UniProt P0DTC2)
[15] = target: SARS-CoV-2 spike (S) protein of Omicron sublineage BJ.1 (R346T, V445P, G446S) (SARS-CoV-2) (UniProt P0DTC2)
[16] = target: SARS-CoV-2 spike (S) protein of Omicron sublineage BQ.1.1 (R346T, K444T, F486V) (SARS-CoV-2) (UniProt P0DTC2)
[17] = target: SARS-CoV-2 spike protein, Omicron variant (B.1.1.529) (SARS-CoV-2) (UniProt P0DTC2)
[18] = target: SARS-CoV-2 Omicron BA.4.6 spike protein (R346T, F486V) (SARS-CoV-2) (UniProt P0DTC2)

Chain of MX183 (A19-61 × B1-182) (bispecific antibody) (chain): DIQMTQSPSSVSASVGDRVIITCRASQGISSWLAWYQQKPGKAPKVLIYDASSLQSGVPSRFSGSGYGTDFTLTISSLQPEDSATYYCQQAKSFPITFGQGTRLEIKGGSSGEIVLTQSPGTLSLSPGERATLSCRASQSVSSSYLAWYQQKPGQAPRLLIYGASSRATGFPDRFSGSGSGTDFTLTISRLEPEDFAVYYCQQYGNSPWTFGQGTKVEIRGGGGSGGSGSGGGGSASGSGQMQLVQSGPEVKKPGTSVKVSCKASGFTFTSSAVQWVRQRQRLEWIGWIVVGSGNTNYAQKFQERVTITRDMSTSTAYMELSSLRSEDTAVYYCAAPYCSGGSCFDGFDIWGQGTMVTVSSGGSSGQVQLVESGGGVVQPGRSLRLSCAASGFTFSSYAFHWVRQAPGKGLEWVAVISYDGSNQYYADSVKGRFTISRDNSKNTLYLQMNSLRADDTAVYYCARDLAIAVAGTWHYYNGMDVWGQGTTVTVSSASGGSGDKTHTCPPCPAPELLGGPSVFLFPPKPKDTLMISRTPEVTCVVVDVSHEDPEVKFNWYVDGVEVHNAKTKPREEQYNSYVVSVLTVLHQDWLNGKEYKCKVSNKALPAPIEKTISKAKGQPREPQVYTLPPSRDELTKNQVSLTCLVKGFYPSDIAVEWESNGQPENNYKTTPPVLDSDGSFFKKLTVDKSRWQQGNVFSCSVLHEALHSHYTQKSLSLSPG
Chain of MX184 (B1-182 × A19-61) (bispecific antibody) (chain): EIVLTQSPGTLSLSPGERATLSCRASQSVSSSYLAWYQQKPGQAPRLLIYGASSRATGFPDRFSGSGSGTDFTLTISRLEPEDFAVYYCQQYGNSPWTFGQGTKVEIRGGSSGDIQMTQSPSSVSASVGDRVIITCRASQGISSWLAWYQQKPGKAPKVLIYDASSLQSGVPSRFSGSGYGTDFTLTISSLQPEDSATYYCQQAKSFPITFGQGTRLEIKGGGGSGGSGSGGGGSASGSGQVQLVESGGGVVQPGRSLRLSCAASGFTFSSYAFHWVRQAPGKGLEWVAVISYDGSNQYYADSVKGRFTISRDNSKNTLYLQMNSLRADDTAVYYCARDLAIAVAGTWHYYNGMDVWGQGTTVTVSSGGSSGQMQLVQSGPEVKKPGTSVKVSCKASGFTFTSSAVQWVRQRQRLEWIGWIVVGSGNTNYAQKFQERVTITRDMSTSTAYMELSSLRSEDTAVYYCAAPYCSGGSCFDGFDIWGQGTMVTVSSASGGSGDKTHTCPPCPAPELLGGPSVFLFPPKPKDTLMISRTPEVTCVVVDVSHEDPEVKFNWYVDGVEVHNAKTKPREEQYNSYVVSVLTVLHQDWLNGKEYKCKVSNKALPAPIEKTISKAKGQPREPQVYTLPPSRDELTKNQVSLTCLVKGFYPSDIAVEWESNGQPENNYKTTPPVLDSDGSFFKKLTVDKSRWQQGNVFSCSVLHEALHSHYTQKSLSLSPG
Chain of MX413 (A19-61 x A23-58H/B1-182L) bispecific, tetravalent molecule with Fc (bispecific antibody) (chain): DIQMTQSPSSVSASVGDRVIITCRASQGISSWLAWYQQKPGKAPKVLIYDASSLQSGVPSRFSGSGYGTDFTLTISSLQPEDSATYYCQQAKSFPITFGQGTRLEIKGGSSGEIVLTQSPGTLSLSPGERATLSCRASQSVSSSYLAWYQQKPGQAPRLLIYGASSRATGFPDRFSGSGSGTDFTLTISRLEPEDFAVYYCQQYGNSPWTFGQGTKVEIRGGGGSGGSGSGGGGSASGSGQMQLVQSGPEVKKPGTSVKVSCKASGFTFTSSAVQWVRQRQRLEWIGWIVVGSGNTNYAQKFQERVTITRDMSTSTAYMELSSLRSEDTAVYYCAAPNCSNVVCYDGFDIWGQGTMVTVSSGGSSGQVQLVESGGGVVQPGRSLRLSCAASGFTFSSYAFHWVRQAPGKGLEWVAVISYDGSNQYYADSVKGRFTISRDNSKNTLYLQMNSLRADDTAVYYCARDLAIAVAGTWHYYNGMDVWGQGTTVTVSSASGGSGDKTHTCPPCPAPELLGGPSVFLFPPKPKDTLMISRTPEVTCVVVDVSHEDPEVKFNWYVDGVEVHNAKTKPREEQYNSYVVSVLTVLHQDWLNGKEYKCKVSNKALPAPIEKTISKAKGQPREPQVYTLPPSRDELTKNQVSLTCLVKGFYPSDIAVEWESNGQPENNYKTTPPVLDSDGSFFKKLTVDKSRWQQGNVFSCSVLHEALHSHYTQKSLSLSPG
Chain of A19-46.1 antibody (VH): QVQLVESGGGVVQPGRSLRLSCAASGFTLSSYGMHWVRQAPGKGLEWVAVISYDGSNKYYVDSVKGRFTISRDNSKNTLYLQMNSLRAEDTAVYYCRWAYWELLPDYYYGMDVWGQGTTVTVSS
Chain of A19-46.1 antibody (VL): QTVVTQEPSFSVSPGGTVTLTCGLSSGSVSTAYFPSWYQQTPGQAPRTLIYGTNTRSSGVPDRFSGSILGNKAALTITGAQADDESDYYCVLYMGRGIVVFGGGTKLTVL
Chain of A19-46 mAb (antibody) (VH): as the sequence (VH) above
Chain of A19-46 mAb (antibody) (VL): as the sequence (VL) above
Chain of MX412 (A23-58H/B1-182L × A19-61) (bispecific antibody) (chain): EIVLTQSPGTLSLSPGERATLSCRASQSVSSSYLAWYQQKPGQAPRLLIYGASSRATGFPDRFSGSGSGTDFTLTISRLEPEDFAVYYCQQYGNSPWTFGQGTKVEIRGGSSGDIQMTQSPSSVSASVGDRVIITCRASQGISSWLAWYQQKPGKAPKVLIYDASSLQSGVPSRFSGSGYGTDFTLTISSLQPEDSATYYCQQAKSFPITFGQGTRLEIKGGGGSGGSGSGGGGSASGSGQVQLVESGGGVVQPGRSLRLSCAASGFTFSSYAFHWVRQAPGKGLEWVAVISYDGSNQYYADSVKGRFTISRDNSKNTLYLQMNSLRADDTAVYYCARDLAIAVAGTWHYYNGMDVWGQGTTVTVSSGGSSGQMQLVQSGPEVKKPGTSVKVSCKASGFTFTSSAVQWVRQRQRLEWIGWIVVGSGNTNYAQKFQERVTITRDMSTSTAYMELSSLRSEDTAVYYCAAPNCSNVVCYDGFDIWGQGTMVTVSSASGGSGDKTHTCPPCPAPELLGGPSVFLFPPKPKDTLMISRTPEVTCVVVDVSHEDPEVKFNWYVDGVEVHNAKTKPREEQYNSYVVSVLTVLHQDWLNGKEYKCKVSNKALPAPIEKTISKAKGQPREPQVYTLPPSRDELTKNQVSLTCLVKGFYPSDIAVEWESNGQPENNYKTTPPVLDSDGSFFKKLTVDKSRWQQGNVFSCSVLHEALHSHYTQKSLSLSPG
Chain of MX492 (A19-46 x A23-58H/B1-182L) bispecific, tetravalent molecule with Fc (bispecific antibody) (chain): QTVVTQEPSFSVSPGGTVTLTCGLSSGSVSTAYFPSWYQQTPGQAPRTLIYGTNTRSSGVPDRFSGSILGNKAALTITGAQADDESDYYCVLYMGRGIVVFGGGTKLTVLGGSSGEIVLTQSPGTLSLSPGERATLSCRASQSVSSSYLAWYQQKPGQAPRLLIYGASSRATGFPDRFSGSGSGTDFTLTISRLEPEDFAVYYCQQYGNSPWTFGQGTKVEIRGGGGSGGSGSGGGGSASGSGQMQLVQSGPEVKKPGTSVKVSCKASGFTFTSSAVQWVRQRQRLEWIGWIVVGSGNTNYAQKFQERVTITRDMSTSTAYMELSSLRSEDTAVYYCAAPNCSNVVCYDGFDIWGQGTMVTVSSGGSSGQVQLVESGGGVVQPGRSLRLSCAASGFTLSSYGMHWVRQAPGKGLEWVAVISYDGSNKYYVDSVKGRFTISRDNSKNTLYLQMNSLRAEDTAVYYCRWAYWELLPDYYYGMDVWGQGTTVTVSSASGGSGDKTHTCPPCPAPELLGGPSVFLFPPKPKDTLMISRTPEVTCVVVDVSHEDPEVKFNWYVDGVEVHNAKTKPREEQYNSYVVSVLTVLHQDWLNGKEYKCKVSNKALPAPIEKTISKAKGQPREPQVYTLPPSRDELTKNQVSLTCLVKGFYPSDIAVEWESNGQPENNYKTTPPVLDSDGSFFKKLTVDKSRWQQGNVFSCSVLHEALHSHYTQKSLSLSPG

Row | Substance | IC50, pseudovirus neutralization [1] | IC80, pseudovirus neutralization [1] | IC50, pseudovirus neutralization [2] | IC80, pseudovirus neutralization [2] | IC50, pseudovirus neutralization [3] | IC80, pseudovirus neutralization [3] | IC50, pseudovirus neutralization [4] | IC80, pseudovirus neutralization [4] | IC50, pseudovirus neutralization [5] | IC80, pseudovirus neutralization [5] | IC50, pseudovirus neutralization [6] | IC80, pseudovirus neutralization [6] | IC50, pseudovirus neutralization [8] | IC80, pseudovirus neutralization [8] | IC50, pseudovirus neutralization [9] | IC80, pseudovirus neutralization [9] | IC50, pseudovirus neutralization [13] | IC80, pseudovirus neutralization [13] | IC50, pseudovirus neutralization [14] | IC80, pseudovirus neutralization [14] | other results
1 | A19-46 mAb (antibody) | 0.958 nM | 2.28 nM | 0.0645 nM | 0.177 nM | > 66.7 nM | > 66.7 nM | 0.19 nM | 0.486 nM | 0.807 nM | 2.07 nM | 11.6 nM | 21 nM | > 66.7 nM | > 66.7 nM | 0.26 nM | 0.7 nM | 1.34 nM | 3.81 nM | – | – | IC50, pseudovirus neutralization [7]: > 66.7 nM; IC80, pseudovirus neutralization [7]: > 66.7 nM; IC50, pseudovirus neutralization [10]: 0.803 nM; IC80, pseudovirus neutralization [10]: 1.88 nM; IC50, pseudovirus neutralization [11]: > 66.7 nM; IC80, pseudovirus neutralization [11]: > 66.7 nM; IC50, pseudovirus neutralization [12]: > 66.7 nM; IC80, pseudovirus neutralization [12]: > 66.7 nM
2 | A19-46.1 antibody | – | – | – | – | – | – | – | – | – | – | – | – | – | – | – | – | – | – | 148 nM | 352 nM | IC50, pseudovirus neutralization [15]: > 10000 nM; IC80, pseudovirus neutralization [15]: > 10000 nM; IC50, pseudovirus neutralization [16]: > 10000 nM; IC80, pseudovirus neutralization [16]: > 10000 nM
3 | A19-61 mAb (antibody) | > 66.7 nM | > 66.7 nM | 0.725 nM | 2.24 nM | 0.11 nM | 0.298 nM | 0.175 nM | 0.325 nM | 0.0686 nM | 0.113 nM | 8.43 nM | > 66.7 nM | 0.209 nM | 0.292 nM | 0.135 nM | 0.288 nM | 0.264 nM | 0.43 nM | – | – | IC50, pseudovirus neutralization [7]: 0.0557 nM; IC80, pseudovirus neutralization [7]: 0.121 nM; IC50, pseudovirus neutralization [10]: 0.0418 nM; IC80, pseudovirus neutralization [10]: 0.0836 nM; IC50, pseudovirus neutralization [11]: 0.0815 nM; IC80, pseudovirus neutralization [11]: 0.173 nM; IC50, pseudovirus neutralization [12]: 0.11 nM; IC80, pseudovirus neutralization [12]: 0.186 nM
4 | A19-61.1 antibody | – | – | – | – | – | – | – | – | – | – | – | – | – | – | – | – | – | – | > 10000 nM | > 10000 nM | IC50, pseudovirus neutralization [15]: > 10000 nM; IC80, pseudovirus neutralization [15]: > 10000 nM; IC50, pseudovirus neutralization [16]: > 10000 nM; IC80, pseudovirus neutralization [16]: > 10000 nM
5 | A23-58.1 (antibody) | – | – | – | – | – | – | – | – | – | – | – | – | – | – | – | – | – | – | – | – | IC50, pseudovirus neutralization [17]: 98.1 nM; IC80, pseudovirus neutralization [17]: 782 nM
6 | A23-58H/B1-182L hybrid antibody | – | – | – | – | – | – | – | – | – | – | – | – | – | – | – | – | – | – | 5 nM | 35 nM | IC50, pseudovirus neutralization [18]: > 10000 nM; IC80, pseudovirus neutralization [18]: > 10000 nM; IC50, pseudovirus neutralization [15]: 20 nM; IC80, pseudovirus neutralization [15]: 102 nM; IC50, pseudovirus neutralization [16]: > 10000 nM; IC80, pseudovirus neutralization [16]: > 10000 nM
7 | B1-182 mAb (antibody) | 1.03 nM | 4.44 nM | 2.34 nM | 8.19 nM | 0.739 nM | 5.92 nM | 0.0262 nM | 0.0844 nM | 0.0357 nM | 0.139 nM | 0.0549 nM | 0.11 nM | 0.0099 nM | 0.0254 nM | 0.0182 nM | 0.0429 nM | 0.0695 nM | 0.219 nM | – | – | IC50, pseudovirus neutralization [7]: 0.008 nM; IC80, pseudovirus neutralization [7]: 0.0192 nM; IC50, pseudovirus neutralization [10]: 0.0639 nM; IC80, pseudovirus neutralization [10]: 0.183 nM; IC50, pseudovirus neutralization [11]: 0.0261 nM; IC80, pseudovirus neutralization [11]: 0.086 nM; IC50, pseudovirus neutralization [12]: 0.0049 nM; IC80, pseudovirus neutralization [12]: 0.015 nM
8 | MX183 (A19-61 × B1-182) (bispecific antibody) | > 66.7 nM | > 66.7 nM | – | – | – | – | 0.803 nM | 5.66 nM | 1.02 nM | 1.65 nM | – | – | 0.23 nM | 0.948 nM | 0.43 nM | 2.27 nM | – | – | – | – | IC50, pseudovirus neutralization [7]: 0.542 nM; IC80, pseudovirus neutralization [7]: 1.04 nM
9 | MX184 (B1-182 × A19-61) (bispecific antibody) | 47.6 nM | > 66.7 nM | – | – | – | – | 0.0772 nM | 0.186 nM | 0.0441 nM | 0.12 nM | – | – | 0.0129 nM | 0.0458 nM | 0.0325 nM | 0.137 nM | – | – | – | – | IC50, pseudovirus neutralization [7]: 0.0174 nM; IC80, pseudovirus neutralization [7]: 0.03 nM
10 | MX409 (A23-58H/B1-182L Tetravalent) (antibody) | 2.03 nM | > 66.7 nM | 4.9 nM | > 66.7 nM | 8.96 nM | 52.7 nM | 0.0139 nM | 0.0286 nM | 0.0073 nM | 0.0175 nM | 0.005 nM | 0.0099 nM | 0.00313 nM | 0.00882 nM | 0.00182 nM | 0.00565 nM | 0.0046 nM | 0.0124 nM | – | – | –
11 | MX412 (A23-58H/B1-182L × A19-61) (bispecific antibody) | 8.96 nM | 31.8 nM | 0.0304 nM | 0.0803 nM | 0.0615 nM | 0.178 nM | 0.058 nM | 0.143 nM | 0.0365 nM | 0.084 nM | 0.014 nM | 0.0528 nM | 0.0279 nM | 0.0625 nM | 0.042 nM | 0.0885 nM | 0.583 nM | 1.78 nM | – | – | –
12 | MX413 (A19-61 x A23-58H/B1-182L) bispecific, tetravalent molecule with Fc (bispecific antibody) | – | – | – | – | – | – | – | – | – | – | – | – | – | – | – | – | – | – | 21 nM | 71 nM | IC50, pseudovirus neutralization [15]: 3210 nM; IC80, pseudovirus neutralization [15]: > 10000 nM; IC50, pseudovirus neutralization [16]: > 10000 nM; IC80, pseudovirus neutralization [16]: > 10000 nM
13 | MX413 (A19-61 × A23-58H/B1-182L) (bispecific antibody) | 6.58 nM | 20.5 nM | 0.0141 nM | 0.0466 nM | 0.0149 nM | 0.0614 nM | 0.0547 nM | 0.141 nM | 0.0386 nM | 0.092 nM | 0.0109 nM | 0.026 nM | 0.0193 nM | 0.0655 nM | 0.025 nM | 0.0547 nM | 0.089 nM | 0.166 nM | – | – | –
14 | MX492 (A19-46 x A23-58H/B1-182L) bispecific, tetravalent molecule with Fc (bispecific antibody) | – | – | – | – | – | – | – | – | – | – | – | – | – | – | – | – | – | – | 3 nM | 10 nM | IC50, pseudovirus neutralization [15]: 783 nM; IC80, pseudovirus neutralization [15]: 2010 nM; IC50, pseudovirus neutralization [16]: > 10000 nM; IC80, pseudovirus neutralization [16]: > 10000 nM
15 | S2E12 (antibody) | – | – | – | – | – | – | – | – | – | – | – | – | – | – | – | – | – | – | – | – | IC50, pseudovirus neutralization [17]: 8.8 nM; IC80, pseudovirus neutralization [17]: 38.5 nM
16 | bebtelovimab (LY1404, LY-CoV1404, LY3853133) (antibody) | – | – | – | – | – | – | – | – | – | – | – | – | – | – | – | – | – | – | 13 nM | 86 nM | IC50, pseudovirus neutralization [15]: > 10000 nM; IC80, pseudovirus neutralization [15]: > 10000 nM; IC50, pseudovirus neutralization [16]: > 10000 nM; IC80, pseudovirus neutralization [16]: > 10000 nM

Source: patent US20240109955A1
